Key:
FOXO1 DNA-binding domain [1] = target: FOXO1 DNA-binding domain (UniProt Q12778); assay: ITC; details: FOXO1 alone; 50 mM Bis-Tris, 150 mM NaCl, pH 6.5; ITC at 25 °C; NMR 1H-15N HSQC with 100 uM FOXO1
[2] = target: FOXO1 DNA-binding domain;ETS1 DNA-binding domain (UniProt Q12778+P14921); assay: ITC; details: FOXO1 titrated into equimolar ETS1 + DNA; Kd of FOXO1; 50 mM Bis-Tris, 150 mM NaCl, pH 6.5; ITC at 25 °C; NMR 1H-15N HSQC with 100 uM FOXO1
[3] = target: FOXO1 DNA-binding domain;ETS1 R409A R409A (UniProt Q12778+P14921); assay: ITC; details: FOXO1 titrated into equimolar ETS1 R409A + DNA; Kd of FOXO1; 50 mM Bis-Tris, 150 mM NaCl, pH 6.5; ITC at 25 °C; NMR 1H-15N HSQC with 100 uM FOXO1
[4] = target: FOXO1 DNA-binding domain;ETS1 R409H R409H (UniProt Q12778+P14921); assay: ITC; details: FOXO1 titrated into equimolar ETS1 R409H + DNA; Kd of FOXO1; 50 mM Bis-Tris, 150 mM NaCl, pH 6.5; ITC at 25 °C; NMR 1H-15N HSQC with 100 uM FOXO1
[5] = target: FOXO1 DNA-binding domain;ETS1 Y410A Y410A (UniProt Q12778+P14921); assay: ITC; details: FOXO1 titrated into equimolar ETS1 Y410A + DNA; Kd of FOXO1; 50 mM Bis-Tris, 150 mM NaCl, pH 6.5; ITC at 25 °C; NMR 1H-15N HSQC with 100 uM FOXO1
FOXO1 DNA-binding domain [6] = target: FOXO1 DNA-binding domain (UniProt Q12778); assay: NMR; details: FOXO1 alone, 50 mM Bis-Tris, 150 mM NaCl, pH 6.5, ITC at 25 °C, NMR 1H-15N HSQC with 100 uM FOXO1

Sequence | Kd (FOXO1 DNA-binding domain [1]) [nM] | Kd [2] [nM] | Kd [3] [nM] | Kd [4] [nM] | Kd [5] [nM] | Kd (FOXO1 DNA-binding domain [6]; fit of residue G161 peak) [nM] | Kd (FOXO1 DNA-binding domain [6]; mean of selected peaks, fast exchange) [nM]
AAAACAACAGGAAGTATTT (double strand) [ω] | 352 | 44 | 151 | 67 | 313 |  | 
CTGTAAACAGGAAGTGGAG (double strand) [ω-none] | 24 | 26 |  |  |  |  | 
TGACGCACCGGAAGTTAGG (double strand) [ω-high] |  |  |  |  |  | 122000 | 167000

From publication PMC6949242
